Laboratory results reported in US20070148773.

Legend:
Assay in all cases: cell_activity
[1] = target: Int-h/218 (double mutant lambda integrase) (Bacteriophage lambda) (UniProt P03700); settings: HeLa 48 h
[2] = target: Int-h (mutant lambda integrase) (Bacteriophage lambda) (UniProt P03700); settings: HeLa 48 h
[3] = target: T1, Int (wild-type lambda integrase) (Bacteriophage lambda) (UniProt P03700); settings: attP x attP intermolecular, HeLa 48 h; attP x attB 0.81%
T1 sequence: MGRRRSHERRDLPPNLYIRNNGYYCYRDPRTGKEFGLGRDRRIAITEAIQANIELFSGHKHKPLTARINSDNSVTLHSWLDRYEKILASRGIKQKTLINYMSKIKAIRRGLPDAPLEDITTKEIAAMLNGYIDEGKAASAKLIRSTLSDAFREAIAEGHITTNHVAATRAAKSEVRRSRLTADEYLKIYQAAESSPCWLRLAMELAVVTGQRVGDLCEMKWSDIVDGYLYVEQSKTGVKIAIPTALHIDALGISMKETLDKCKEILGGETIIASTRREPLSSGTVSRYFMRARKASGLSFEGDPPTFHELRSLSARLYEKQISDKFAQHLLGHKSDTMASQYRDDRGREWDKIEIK

Row | Sequence | activity ([1]; attB x attB intermolecular) | activity ([2]; attB x attB intermolecular) | activity ([1]; attP x attP intermolecular, attP x attB 16.45%) | activity ([2]; attP x attP intermolecular, attP x attB 9.90%) | activity [3]
1 | CTGCTTTTTTATACTAACTTG (double strand) [attB] | 4.01 % GFP+ cells | 1.15 % GFP+ cells | – | – | –
2 | TCTGTTACAGGTCACTAATACCATCTAAGTAGTTGATTCATAGTGACTGCATATGTTGTGTTTTACAGTATTATGTAGTCTGTTTTTTATGCAAAATCTAATTTAATATATTGATATTTATATCATTTTACGTTTCTCGTTCAGCTTTTTTATACTAAGTTGGCATTATAAAAAAGCATTGCTTATCAATTTGTTGCAACGAACAGGTCACTATCAGTCAAAATAAAATCATTATTTGATTTC (double strand) [attP] | – | – | 17.6 % GFP+ cells | 8.07 % GFP+ cells | 1.24 % GFP+ cells
